Results published in the supplement of paper PMC12042874.
± gives the uncertainty stated by the source.

Experiment: amyloid nucleation score (Sup35N fusion, yeast selection) (log enrichment); library NNK3; higher = more nucleation; inactive = no reads after selection
Method in brief: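 The nucleation score equals the log enrichment of output over input reads from DiMSum, centred on the mode score of non-aggregating sequences. It was computed only for sequences with 100 or more input reads. The reads came from Illumina sequencing of plasmid inserts from psi-negative yeast expressing Sup35N fused to peptides of 20 random codons, induced with 100 μM copper sulfate for 24 hours and grown 7 days at 30°C without adenine and uracil.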

Row | Substance | amyloid nucleation score
1 | GPIYWLLKGQNFESRVDTNL | inactive
2 | RMFVI | inactive
3 | WALTRLRAPPF | inactive
4 | VYEGFQVWNDGLPDLVRFGV | inactive
5 | IYMFVHIK | 1.68 ± 0.086
6 | KGNRFPRVLGIMFAFLFGSE | inactive
7 | SSLLYIDRIVLSRTVIPMLL | inactive
8 | RDMFIYKTCMKVCVQLPYII | inactive
9 | QRNMVSEGATRCLSTDFPCL | inactive
10 | PRCMYRLVFICGPGFRCSAG | -0.07 ± 0.47
11 | STCMFVGSDSRVRVRYIDIC | inactive
12 | TSYNCCVVHSVRTAIFARG | inactive
13 | WCDYMKNPCSFEGKFLWRWP | inactive
14 | YKTYKYERLCIFVLSQRESI | inactive
15 | PFRNMLGMNPNSQTLRVMVR | inactive
16 | GDTDFYRSCNASYIPSLSRL | inactive
17 | IVEGHLSIIGWYEGNFPHML | 0.145 ± 0.42
18 | VVSLRQLRW | inactive
19 | GHRRVVSLCYTYMRWI | inactive
20 | HLCDFPLEVKTLFFLL | 0.508 ± 0.17

Row | Substance | amyloid nucleation score
21 | PWPNVLLCDNDRLSFRYRSF | 0.972 ± 0.1
22 | CVAECPLA | inactive
23 | LCECR | inactive
24 | VIVARFLFMGTTFHVPDVRP | 1.97 ± 0.075
25 | KSVNLHA | inactive
26 | GGRLSLKESWKAGFSIAERF | inactive
27 | PRLAIKAHGVWVGKSFIGET | inactive
28 | ISLSR | inactive
29 | FHLYNVW | inactive
30 | AEWYIRITGDICLDPYLCKN | inactive
31 | KCWPIVCNLWNREWQCSLIR | inactive
32 | TYEEGRRQCSRAPMDSYVQS | inactive
33 | VTILYASASMESLSLGLCGT | inactive
34 | YMTGNSSSWSTFGWDKRFGI | 1.03 ± 0.09
35 | PRKTFVKCNRRLNSW | inactive
36 | EWISLQVKNLTVSTVMLCLE | inactive
37 | FYPKLPTLSVQDVGHRKPST | inactive
38 | LMKWALNTELKMG | inactive
39 | ILYLVR | inactive
40 | RSSDSDMSLECKAVE | inactive

Row | Substance | amyloid nucleation score
41 | TRIGSTEKTEQSVWD | -0.198 ± 0.75
42 | YFVPWGFAKDRRKTHDLPAE | inactive
43 | KYGWVLFYGCYYCGHGWTNL | inactive
44 | RLFLGVGCMS | inactive
45 | VGMGLAKDVR | inactive
46 | FCIEPR | inactive
47 | CFCFARFKFR | 2.19 ± 0.071
48 | SDIYWNGGLMYWICSMSVFI | 2.84 ± 0.078
49 | TLSSKDVYMFLDS | inactive
50 | CEYVNKLHTVGVHWGTGSRE | inactive
51 | KGEDPPHCSTEIPCMSRQLL | inactive
52 | YYTFSVHSYGEFMRCLFIQH | inactive
53 | CVVIFICPQKG | 0.811 ± 0.26
54 | KSERLNLVGILVSLVRPVCL | inactive
55 | PQHLFST | inactive
56 | VACITLCNIVQSIQMSIIMK | 1.45 ± 0.061
57 | TRILGYIFGAVSIVWLGVER | inactive
58 | NLWVADWIEHHYPSRSSIFA | inactive
59 | IVMKALNAFWTRTMLMFHHM | inactive
60 | LKSIYLLKWCPTSQLRTTSV | inactive
